Assay results as given in patent US20080095768A1 (PDL BIOPHARMA, published 2008).

Biological target: T1, human CS1 (CD2-subset1) (human, UniProt Q9NQ25 23-335)
T1 construct: Endogenous CS1 on primary myeloma cells / CD138+ tissue plasma cells; also called SLAMF7; CRACC
Assay: flow cytometry on primary myeloma cells and IHC on normal tissues, using HuLuc63 as the detecting antibody
Description: Gene expression was assessed using an Affymetrix GeneChip array. Protein expression was measured by flow cytometry, and immunohistochemistry (IHC), using HuLuc63, a novel humanized anti-CS1 mAb. HuLuc63-mediated lysis of myeloma cells via antibody dependent cellular cytotoxicity (ADCC) was measured by ⁵¹Cr-release.
CS1 mRNA was detected in CD138+ purified plasma cells from >95% of healthy donors, newly diagnosed myeloma patients, and those with relapsed myeloma (FIG. 1). […] Finally, we determined that HuLuc63 could induce killing of myeloma cells using purified allogeneic NK cells (FIG. 2). […] Our data support the potential clinical utility of CS1-targeted therapy.

binding result: binds
B1: HuLuc63 (antibody, IgG1, V domains shown)
VH: EVQLVESGGGLVQPGGSLRLSCAASGFDFSRYWMSWVRQAPGKGLEWIGEINPDSSTINYAPSLKDKFIISRDNAKNSLYLQMNSLRAEDTAVYYCARPDGNYWYFDVWGQGTLVTVSS
VL: DIQMTQSPSSLSASVGDRVTITCKASQDVGIAVAWYQQKPGKVPKLLIYWASTRHTGVPDRFSGSGSGTDFTLTISSLQPEDVATYYCQQYSSYPYTFGQGTKVEIK
notes: Humanized recombinant monoclonal IgG1; also called HyLuc63; humanized anti-CS1 mAb
